Measurements from patent US20180127505A1, “HUMANIZED ANTI-AXL ANTIBODIES AND THEIR CONJUGATES” (MEDIMMUNE LIMITED, priority 2015, published 2018).

B1: Ab1 (antibody, V domains shown)
VH: EVQLVESGGDLVKPGGSLKLSCAASGFTFSSYGMSWVRQTPDKRLEWVATISSGGSYTYYPDSVKGRFTISRDNAKNTLYLQMSSLKSEDTAMYYCARHPIYYTYDDTMDYWGQGTSVTVSS
VL: ENVLTQSPAIMAASPGEKVTMTCSASSSVSSGNFHWYQQKPGTSPKLWIYRTSNLASGVPARFSGSGSGTSYSLTISSMEAEDAATYYCQQWSGYPWTFGGGTKLEIK
B2: Ab2: anti-AXL antibody, VH SEQ ID NO. 2, VL SEQ ID NO. 5, constant region derived from human antibodies (antibody, V domains shown)
VH: MGFKMESQFQVFVFVFLWLSGVDGQVQLVESGGGVVQPGRSLRLSCAASGFTFSSYGMSVRQAPGKGLEWVATISSGGSYTYYPDSVKGRFTISRDNSKNTLYLQMNSLRAEDTAVYYCARHPIYYTYDDTMDYWGQGTTVTVSS
VL: MGFKMESQFQVFVFVFLWLSGVDGEIVLTQSPATLSLSPGERATLSCSASSSVSSGNFHWYQQKPGLAPRLLIYRTSNLASGIPDRFSGSGSGTDFTLTISRLEPEDFAVYYCQQWSGYPWTFGPGTKVDIK
modifications: human constant regions; Synthetic heavy chain variable region 1H12RHA; Synthetic light chain variable region 1H12RKA
notes: 5, constant region derived from human antibodies
B3: Ab5: anti-AXL antibody, VH SEQ ID NO. 3, VL SEQ ID NO. 7, constant region derived from human antibodies (antibody, V domains shown)
VH: MGFKMESQFQVFVFVFLWLSGVDGEVQLVESGGGLVQPGGSLRLSCAASGFTFSSYGMSWVRQAPGKGLEWVATISSGGSYTYYPDSVKGRFTISRDNAKNSLYLQMNSLRAEDTAVYYCARHPIYYTYDDTMDYWGQGTLVTVSS
VL: MGFKMESQFQVFVFVFLWLSGVDGEIVLTQSPGTLSLSPGERATLSCSASSSVSSGNFHWYQQKPGLAPRLLIYRTSNLASGIPARFSGSGSGTDFTLTISSLEPEDFAVYYCQQWSGYPWTFGGGTKLEIK
modifications: human constant regions; Synthetic heavy chain variable region 1H12RHB; Synthetic light chain variable region 1H12RKB
notes: 7, constant region derived from human antibodies
B4: Ab3: anti-AXL antibody, VH SEQ ID NO. 2, VL SEQ ID NO. 7, constant region derived from human antibodies (antibody, V domains shown)
VH: MGFKMESQFQVFVFVFLWLSGVDGQVQLVESGGGVVQPGRSLRLSCAASGFTFSSYGMSVRQAPGKGLEWVATISSGGSYTYYPDSVKGRFTISRDNSKNTLYLQMNSLRAEDTAVYYCARHPIYYTYDDTMDYWGQGTTVTVSS
VL: MGFKMESQFQVFVFVFLWLSGVDGEIVLTQSPGTLSLSPGERATLSCSASSSVSSGNFHWYQQKPGLAPRLLIYRTSNLASGIPARFSGSGSGTDFTLTISSLEPEDFAVYYCQQWSGYPWTFGGGTKLEIK
modifications: human constant regions; Synthetic heavy chain variable region 1H12RHA; Synthetic light chain variable region 1H12RKB
notes: as for B3
B5: Ab4: anti-AXL antibody, VH SEQ ID NO. 3, VL SEQ ID NO. 5, constant region derived from human antibodies (antibody, V domains shown)
VH: MGFKMESQFQVFVFVFLWLSGVDGEVQLVESGGGLVQPGGSLRLSCAASGFTFSSYGMSWVRQAPGKGLEWVATISSGGSYTYYPDSVKGRFTISRDNAKNSLYLQMNSLRAEDTAVYYCARHPIYYTYDDTMDYWGQGTLVTVSS
VL: MGFKMESQFQVFVFVFLWLSGVDGEIVLTQSPATLSLSPGERATLSCSASSSVSSGNFHWYQQKPGLAPRLLIYRTSNLASGIPDRFSGSGSGTDFTLTISRLEPEDFAVYYCQQWSGYPWTFGPGTKVDIK
modifications: human constant regions; Synthetic heavy chain variable region 1H12RHB; Synthetic light chain variable region 1H12RKA
notes: as for B2

Test: Capillary isoelectric focussing (pI)
Type: physicochemical
Details: HEK293F expression product
Method: Protocol 5: Capillary Isoelectric Focussing
• PA 800 plus (AB SCIEX) • Anolyte Solution: 200 mM Phosphoric Acid (Sigma-Aldrich #345 245). • 4.3M Urea (Sigma-Aldrich #U0631) in water. • Catholyte Solution: 300 mM Sodium Hydroxide. • 3M Urea (Sigma-Aldrich #U0631) in cIEF Gel (Beckman Coulter #477497). • Chemical Mobiliser: 350 mM Acetic Acid (Sigma-Aldrich #537 020). • Pharmalyte 3-10 (GE Healthcare 17-0456-01). • Cathodic Stabiliser: 500 mM Arginine (Sigma-Aldrich #A5006). • cIEF Peptide markers PI 4-10 (Beckman Coulter # A58481). • Anodic Stabiliser: 200 mM Iminodiacetic Acid (Sigma-Aldrich #220 000). • Neutral Capillary, 50 μm i.d.×45 cm, (Beckman Coulter #477 441)
• Turn on the PA800+ machine and UV lamp, allowing it to warm up 30 mins before use. • Clean the system electrodes and interface block with a damp Kimwipe. • Prepare buffer trays as shown, with 1.5 mL reagent per vial, 1 mL of water in the waste and place in the system. • 1. DDI water • 2. Anolyte • 3. Urea Solution • 4. 3M urea/cIEF Gel • 5. Chemical Mobilizer • 6. Waste • 7. Catholyte • 8. Chemical Mobilizer • 9. BI (Inlet Buffer Tray) • 10. BO (Outlet Buffer Tray) • NOTE. Each set of buffer vials is good for 6 consecutive runs or for 24 hours inside the instrument. • Insert the capillary cartridge into the system and close the front panel. • NOTE. […] When the capillary is not in use, submerge the capillary ends in vials filled with DDI water. • Prepare cIEF master mix using the table below. Dispense each reagent into a centrifuge tube, vortex 1 min, invert every 15-20 sec to ensure complete mixing and store at 2° C. to 8° C. for up to 1 day.
• Desalt and concentrate each antibody (to about 5 mg/ml) in 2M urea using Amicon Ultra 0.5 mL centrifugal filters (Sigma Z677108). • Mix 200 μL of master mix with 10 μL of protein, vortex the cIEF sample for 1 min, inverting the tube every 15-20 sec, then centrifuge at high speed to remove any air bubbles. Transfer 100 μL of sample into a micro vial. Place the micro vial into a universal plastic vial and cap it with a blue cap. Then place the sample vial in the inlet sample tray. • Run the “cIEF Conditioning—PA 800 plus.met” method to condition the column. • Rinse for 5 min at 50 psi with Chemical Mobilizer. See FIG. 2.10. • 2 Rinse for 2 min at 50 psi with DDI water. • 3 Rinse for 5 min at 50 psi with cIEF gel. • 4 Submerge both of the capillary ends in vials filled with DDI water. • Use the “cIEF Separation—PA 800 plus.met” method to create a sequence containing all protein samples and a blank. • Rinse for 3 min at 50 psi with Urea Solution. See FIG. 2.11. • Rinse for 2 min at 50 psi with DDI water. • Inject sample for 99.0 sec at 25 psi. • Water dip by submerging both capillary ends in DDI water. • Focusing step, 15 min at 25 kV under normal polarity (Time=0). • Chemical mobilization, 30 min at 30 kV under normal polarity (Time=15 min). • Stop data collection (Time=45 min). • Rinse for 2 min at 50 psi with DDI water (Time=45.10 min). • Submerged both of the capillary ends in DDI water (Time=47.20 min). • End the method (Time=47.30 min). • Put the “cIEF Shutdown—PA 800 plus.met” method at the end of the sequence to rinse the capillary and turn off the UV. • Rinse for 2 min at 50 psi with DDI water. See FIG. 2.12. • Rinse for 5 min at 50 psi with cIEF gel. • Turn off the UV lamp. • Submerge both of the capillary ends in vials filled with DDI water. • For short term storage (1 to 3 days), leave the capillary on the instrument. […]
B1 showed a pI of 8.05.
B2 showed a pI of 8.06.
Molecule B3 has a pI of 7.54.
B4 showed a pI of 8.15.
B5 gave a pI of 7.56.
